Assay results as given in article PMC8146883, “A New Thermophilic Ene-Reductase from the Filamentous Anoxygenic Phototrophic Bacterium Chloroflexus aggregans” (Microorganisms, 2021).

Biological target: CaOYE, ene-reductase (Old Yellow Enzyme homologue) from Chloroflexus aggregans (Chloroflexus aggregans DSM 9485) (UniProt B8G5D6)
Assay: crystal structure; N-terminally His6-tagged CaOYE at 20 mg/mL in 50 mM Tris-HCl pH 8.0; crystals from 100 mM HEPES pH 7.0, 1.1 M sodium malonate, 0.5% Jeffamine ED-2003, 293 K; space group C2221, 4 molecules per asymmetric unit; dimer seen in the crystal packing

Chain of CaOYE, ene-reductase (Old Yellow Enzyme homologue) from Chloroflexus aggregans (B8G5D6 whole entry): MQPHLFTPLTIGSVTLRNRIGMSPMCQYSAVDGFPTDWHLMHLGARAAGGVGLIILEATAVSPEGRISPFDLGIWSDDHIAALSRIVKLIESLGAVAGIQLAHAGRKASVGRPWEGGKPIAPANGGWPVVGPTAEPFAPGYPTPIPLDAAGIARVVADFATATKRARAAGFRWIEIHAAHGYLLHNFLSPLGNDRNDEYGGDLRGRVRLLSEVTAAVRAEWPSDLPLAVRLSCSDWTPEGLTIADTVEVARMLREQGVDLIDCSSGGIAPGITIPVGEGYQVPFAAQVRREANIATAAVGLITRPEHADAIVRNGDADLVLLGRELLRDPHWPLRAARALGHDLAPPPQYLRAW

CaOYE, ene-reductase (Old Yellow Enzyme homologue) from Chloroflexus aggregans (from UniProt B8G5D6 1-354)
stoichiometry N: 2
